Measurements published in patent US20200308270A1.

Tests used:
[1] = target: human recombinant FcgammaR receptor CD32aH (human) (UniProt P12318); test: SPR (ProteOn), Mab captured via anti-human Fc, FcgammaR analyte
[2] = target: human recombinant FcgammaR receptor CD32bF (human) (UniProt P31994); test: as above

CAT-2200 wild-type lambda Mab (antibody), sequence (heavy): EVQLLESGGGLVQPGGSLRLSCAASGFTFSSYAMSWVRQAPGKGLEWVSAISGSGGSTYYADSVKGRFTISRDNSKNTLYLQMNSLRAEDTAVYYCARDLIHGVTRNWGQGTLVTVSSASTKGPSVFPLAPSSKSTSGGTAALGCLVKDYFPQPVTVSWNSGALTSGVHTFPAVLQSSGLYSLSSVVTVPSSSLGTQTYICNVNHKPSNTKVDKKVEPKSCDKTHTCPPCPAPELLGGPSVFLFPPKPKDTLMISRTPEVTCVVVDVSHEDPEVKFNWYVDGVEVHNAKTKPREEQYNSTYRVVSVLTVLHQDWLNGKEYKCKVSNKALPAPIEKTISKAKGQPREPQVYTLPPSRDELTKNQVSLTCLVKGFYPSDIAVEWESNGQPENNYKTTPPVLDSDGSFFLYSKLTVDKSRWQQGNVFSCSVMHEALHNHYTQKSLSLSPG
CAT-2200 wild-type lambda Mab (antibody), sequence (light): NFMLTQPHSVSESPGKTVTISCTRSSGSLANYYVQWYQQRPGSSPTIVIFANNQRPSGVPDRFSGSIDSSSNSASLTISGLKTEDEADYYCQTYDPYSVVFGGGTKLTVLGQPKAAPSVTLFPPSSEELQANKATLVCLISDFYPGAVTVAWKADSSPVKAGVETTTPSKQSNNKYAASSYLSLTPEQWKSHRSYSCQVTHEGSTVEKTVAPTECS
human recombinant FcgammaR receptor CD32aH (human), sequence (P12318 34-217): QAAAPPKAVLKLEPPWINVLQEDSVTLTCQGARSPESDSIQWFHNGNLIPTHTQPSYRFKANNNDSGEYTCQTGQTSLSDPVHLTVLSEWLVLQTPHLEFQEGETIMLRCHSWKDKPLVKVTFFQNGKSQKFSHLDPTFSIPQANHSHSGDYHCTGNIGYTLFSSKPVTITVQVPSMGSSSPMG

CAT-2200 wild-type lambda Mab (antibody)
Kd [1]: 700 nM
Kd [2]: 2900 nM
